According to US20250186594A1 (BRIGHT PEAK THERAPEUTICS, published 2025):
Substitutions are numbered along the chain they refer to. In names and notes the source's numbering stands. Values belong to the binder of their own block, whether it stands above or below them.

Key:
[1] = biological target: T1, IL-18 receptor (IL-18R) on HEK-Blue IL18R reporter cells (UniProt Q13478 19-541; O95256 20-599, limits assumed); assay: cell-based or functional assay
T1 sequence (looked up) 1: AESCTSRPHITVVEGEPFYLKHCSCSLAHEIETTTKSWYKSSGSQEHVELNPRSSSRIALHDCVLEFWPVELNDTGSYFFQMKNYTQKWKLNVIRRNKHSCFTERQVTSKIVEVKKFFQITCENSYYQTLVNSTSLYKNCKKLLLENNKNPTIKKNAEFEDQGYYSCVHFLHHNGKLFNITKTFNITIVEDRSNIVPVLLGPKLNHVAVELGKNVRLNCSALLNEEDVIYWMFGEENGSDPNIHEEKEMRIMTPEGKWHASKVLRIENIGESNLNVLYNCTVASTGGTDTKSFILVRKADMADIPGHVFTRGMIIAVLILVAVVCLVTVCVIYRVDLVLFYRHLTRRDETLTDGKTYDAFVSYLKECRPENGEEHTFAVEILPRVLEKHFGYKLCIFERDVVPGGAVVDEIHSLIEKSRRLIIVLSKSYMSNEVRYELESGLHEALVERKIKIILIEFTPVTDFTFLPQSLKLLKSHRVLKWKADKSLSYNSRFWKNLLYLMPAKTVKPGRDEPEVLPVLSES
T1 sequence (looked up) 2: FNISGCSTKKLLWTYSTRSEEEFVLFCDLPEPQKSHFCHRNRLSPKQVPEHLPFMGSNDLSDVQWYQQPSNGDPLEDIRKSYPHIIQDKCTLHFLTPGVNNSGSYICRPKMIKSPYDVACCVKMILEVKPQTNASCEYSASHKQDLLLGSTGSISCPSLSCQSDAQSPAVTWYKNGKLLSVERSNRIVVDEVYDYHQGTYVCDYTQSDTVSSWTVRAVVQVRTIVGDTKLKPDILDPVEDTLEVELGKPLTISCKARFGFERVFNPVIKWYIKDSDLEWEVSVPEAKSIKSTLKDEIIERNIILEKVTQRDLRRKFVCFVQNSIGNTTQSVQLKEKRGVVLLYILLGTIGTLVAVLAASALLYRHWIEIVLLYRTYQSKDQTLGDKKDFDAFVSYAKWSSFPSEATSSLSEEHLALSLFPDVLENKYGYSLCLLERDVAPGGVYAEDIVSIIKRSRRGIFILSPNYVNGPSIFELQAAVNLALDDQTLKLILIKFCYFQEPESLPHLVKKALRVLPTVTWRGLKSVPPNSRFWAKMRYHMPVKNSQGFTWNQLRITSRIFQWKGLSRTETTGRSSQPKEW

[2] = biological target: T2, IL-18Rα/β heterodimer (Fc fused human IL-18Rα mixed with Fc fused human IL-18Rβ) (human, UniProt Q13478 19-329; O95256 20-356, limits assumed); assay: SPR, Fc-IL-18Rα/β captured, heterogeneous ligand fit
T2 construct: Alpha and beta Fc fusions were mixed and pre-incubated for 30 min before capture on anti-human IgG; also called alpha/beta heterodimer IL-18 receptor; heterodimeric human IL-18 receptor alpha (CD218a) and IL-18R accessory protein (IL-18RAP/CDw218b); not shown: Fc
T2 sequence (looked up) 1: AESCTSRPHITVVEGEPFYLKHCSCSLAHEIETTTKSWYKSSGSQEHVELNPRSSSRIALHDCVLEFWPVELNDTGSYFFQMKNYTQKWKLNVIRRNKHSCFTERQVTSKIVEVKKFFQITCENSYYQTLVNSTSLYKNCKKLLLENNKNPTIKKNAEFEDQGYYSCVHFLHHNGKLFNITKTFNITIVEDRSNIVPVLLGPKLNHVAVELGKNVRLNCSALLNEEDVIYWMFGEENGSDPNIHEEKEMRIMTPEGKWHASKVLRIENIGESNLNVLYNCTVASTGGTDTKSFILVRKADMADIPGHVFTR
T2 sequence (looked up) 2: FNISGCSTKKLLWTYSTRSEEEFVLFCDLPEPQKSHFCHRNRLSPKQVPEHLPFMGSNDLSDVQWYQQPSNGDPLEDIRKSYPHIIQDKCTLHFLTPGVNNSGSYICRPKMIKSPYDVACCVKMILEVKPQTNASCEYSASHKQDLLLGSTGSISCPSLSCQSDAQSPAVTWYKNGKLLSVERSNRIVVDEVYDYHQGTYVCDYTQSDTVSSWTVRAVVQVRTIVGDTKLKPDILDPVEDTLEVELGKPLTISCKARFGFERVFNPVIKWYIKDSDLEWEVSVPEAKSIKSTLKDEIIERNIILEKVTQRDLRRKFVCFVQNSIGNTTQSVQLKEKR
Protocol: The interaction of the wild type and of modified IL-18 polypeptides with human IL-18 receptor subunits are measured with Surface Plasmon Resonance (SPR) technology. Anti-human IgG antibodies are bound by amine coupling onto a CM5 chip to capture 6 µg/mL of Fc fused human IL-18Rα, […] of Fc fused human IL-18Rβ, or […] of Fc fused human IL-18BP isoform a (IL-18BPa) for 30 min before capture. In other settings, […] of alpha and beta IL-18 receptors are mixed and pre-incubated for 30 min before capture of the alpha/beta heterodimer IL-18 receptor.
The kinetic binding of the IL-18 analytes are measured with a Biacore 8K instrument in two fold serial dilutions starting at […] down to 0.98 nM. Regeneration of the surface back to amine coupled anti IgG antibody is done after every concentration of analyte. To measure the protein association to the receptors, the samples are injected with a flow rate of […] for 60 s, followed by 300 s buffer only to detect the dissociation. The used running buffer is 1×PBS with 0.05% Tween20. The relative response units (RU, Y-axis) are plotted against time (s, X-axis) and analyzed in a kinetic 1:1 binding model for the monomer receptor binding and for the binding to the IL-18BP. A kinetic heterogenous ligand fit model is applied for the alpha/beta heterodimer binding.

B2: IL-18 variant SEQ ID NO: 214 (V11I, D37A, C38A, K53A, C76A, C127A) (ligand)
chain: YFGKLESKLSIIRNLNDQVLFIDQGNRPLFEDMTDSAARDNAPRTIFIISMYADSQPRGMAVTISVKCEKISTLSAENKIISFKEMNPPDNIKDTKSDIIFFQRSVPGHDNKMQFESSSYEGYFLAAEKERDLFKLILKKEDELGDRSIMFTVQNED
EC50, HEK-Blue IL18R reporter [1]: 14.1 nM

B3: IL-18 variant SEQ ID NO: 210 (V11I, E31A, C38A, K53A, C76A, C127A) (ligand)
chain: B2 chain with E31A, A37D
EC50, HEK-Blue IL18R reporter [1]: 6.6 nM

B6: IL-18 variant SEQ ID NO: 216 (V11I, C38A, D40A, K53A, C76A, C127A) (ligand)
chain: B2 chain with A37D, D40A
EC50, HEK-Blue IL18R reporter [1]: 0.52 nM

B10: IL-18 variant SEQ ID NO: 213 (V11I, S36A, C38A, K53A, C76A, C127A) (ligand)
chain: B2 chain with S36A, A37D
EC50, HEK-Blue IL18R reporter [1]: 0.25 nM

B13: IL-18 variant SEQ ID NO: 206 (V11I, C38A, K53A, S55A, C76A, C127A) (ligand)
chain: B2 chain with A37D, S55A
EC50, HEK-Blue IL18R reporter [1]: 3.63 nM

B14: IL-18 variant SEQ ID NO: 209 (F2A, V11I, C38A, K53A, C76A, C127A) (ligand)
chain: B2 chain with F2A, A37D
EC50, HEK-Blue IL18R reporter [1]: 7.28 nM

B15: IL-18 variant SEQ ID NO: 205 (V11I, C38A, K53A, T63A, C76A, C127A) (ligand)
chain: B2 chain with A37D, T63A
EC50, HEK-Blue IL18R reporter [1]: 0.17 nM

B18: IL-18 variant SEQ ID NO: 62 with 30 kDa PEG (E6K, C38A, K53A, C127A, C68-30kPEG) (ligand)
chain: B2 chain with E6K, I11V, A37D, A76C
modifications: 30 kDa PEG on Cys 68 (C68-30kPEG)
notes: also called 62 + PEG
Kd [2]: 14.9 nM
koff [2]: 0.000779 s⁻¹
kon [2]: 52300 M⁻¹ s⁻¹

Other lines, results leading:

EC50, HEK-Blue IL18R reporter [1]: 1.91 nM
B1: IL-18 variant SEQ ID NO: 226 (V11I, C38A, S55R, C76A, C127A) (ligand)
chain: B2 chain with A37D, A53K, S55R

EC50, HEK-Blue IL18R reporter [1]: 0.02 nM
B4: IL-18 variant SEQ ID NO: 243 (Y1M, E6K, V11I, C38A, K53A, T63A, C76A, C127A) (ligand)
chain: B2 chain with Y1M, E6K, A37D, T63A

EC50, HEK-Blue IL18R reporter [1]: 1.95 nM
B5: IL-18 variant SEQ ID NO: 218 (V11I, C38A, K53A, C76A, C127A, D132A) (ligand)
chain: B2 chain with A37D, D132A

EC50, HEK-Blue IL18R reporter [1]: 15.6 nM
B7: IL-18 variant SEQ ID NO: 219 (V11I, C38A, K53A, C76A, G108A, C127A) (ligand)
chain: B2 chain with A37D, G108A

EC50, HEK-Blue IL18R reporter [1]: 7.73 nM
B8: IL-18 variant SEQ ID NO: 229 (V11I, C38A, C76A, S105K, C127A) (ligand)
chain: B2 chain with A37D, A53K, S105K

EC50, HEK-Blue IL18R reporter [1]: 3.14 nM
B9: IL-18 variant SEQ ID NO: 225 (V11I, C38A, S55H, C76A, C127A) (ligand)
chain: B2 chain with A37D, A53K, S55H

EC50, HEK-Blue IL18R reporter [1]: 2.3 nM
B11: IL-18 variant SEQ ID NO: 223 (K8E, V11I, C38A, C76A, Q103R, C127A) (ligand)
chain: B2 chain with K8E, A37D, A53K, Q103R

EC50, HEK-Blue IL18R reporter [1]: 4.73 nM
B12: IL-18 variant SEQ ID NO: 227 (V11I, C38A, S55T, C76A, C127A) (ligand)
chain: B2 chain with A37D, A53K, S55T

EC50, HEK-Blue IL18R reporter [1]: 0.07 nM
B16: IL-18 variant SEQ ID NO: 232 (E6K, V11I, C38A, I49M, K53A, T63A, C76A, C127A) (ligand)
chain: B2 chain with E6K, A37D, I49M, T63A

EC50, HEK-Blue IL18R reporter [1]: 0.1 nM
B17: IL-18 variant SEQ ID NO: 237 (E6K, V11I, C38A, K53A, T63A, C76A, C127A, V153E) (ligand)
chain: B2 chain with E6K, A37D, T63A, V153E
